Measured values as given in patent US20240150474A1 (Regeneron, published 2024).

B1: REGN 5166 (antibody, human IgG4 S228P, kappa, V domains shown)
VH: QVQLVESGGGVVQPGRSLRLSCAASGFTFSAYWMHWVRQAPGKGLEWVAVISYDGSNKYYADSVKGRFTISRDHSKNTLYLQMNSLRAEDTAVYYCAKGDAYDSWRILLGGDYYGMDVWGQGTTVTVSS
VL: EIVLTQSPGTLSLSPGERATLSCRASQSVSSSYLAWYQQKPGQAPRPLIYGASSRATGIPDRFSGSGSGTDFTLTISRLEPEDFAVYYCQQGGDAPPYTFGGGTKVEIKR
notes: also called REGN 5166-L1
B2: REGN 5167 (antibody, human IgG4 S228P, kappa, V domains shown)
VH: QLQLQESGPGLVKPSETLSLTCTVSGGSITSSSYYWAWIRQPPGKGLEWIGKIYYSGSTHYNPSLKSRVTISVDTSKNQFSLKLSSVTAADTAVYYCARVGGHGYGDSAGLAFDIWGQGTMVTVSS
VL: EIVLTQSPGTLSLSPGERATLSCRASQSVSSAFLAWYQQKPGQAPRLLIYGASYRHTGIPDRFSGSGSGTDFTLTISRLEPEDFAVYYCQHYGVGPRTFGGGTKVEIKR
notes: also called REGN 5167-L1
B3: REGN 5168 (antibody, human IgG4 S228P, kappa, V domains shown)
VH: QVQLVQSGAEVKEPGASVKVSCKASGYTFAEYYMHWVRQAPGQGLEWMGAINPSGSHTSYAQKFQGRVTMTRDTSTSTVYMELSSLRSEDTAVYYCARSISGKRGGDYYGMDVWGQGTTVTVSS
VL: DIQMTQSPSTLSASVGDRVTITCRASQSISSWLAWYQQKPGKAPKLLIYKASSLESGVPSRFSGSGSGTEFTLTISSLQPDDFATYYCQQYSIFPFTFGGGTKVEIKR
notes: also called REGN 5168-L1

How the values were obtained:
[1] = molecular target: T1, human ACVR1 extracellular domain expressed with a C-terminal myc-myc-hexahistidine tag (human); assay: SPR Biacore T200, mAb captured by anti-human Fc, hACVR1-mmh injected, 37C
T1 construct: also called hACVR1-mmh; hACVR1.mmh
T1 chain: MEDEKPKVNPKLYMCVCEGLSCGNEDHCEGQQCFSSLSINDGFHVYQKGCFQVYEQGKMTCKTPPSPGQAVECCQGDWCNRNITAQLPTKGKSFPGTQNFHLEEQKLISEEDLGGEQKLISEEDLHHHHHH
Description: (§1) Equilibrium dissociation constants (KD) for ACVR1 binding to purified anti-ACVR1 monoclonal antibodies were determined using a real-time surface plasmon resonance (SPR) based Biacore T200 biosensor. All binding studies were performed in 10 mM HEPES, 150 mM NaCl, 3 mM EDTA, and 0.05% v/v surfactant Tween-20, pH 7.4 (HBS-EP) running buffer at […]. The Biacore CM5 sensor surface was first derivatized by amine coupling with a monoclonal mouse anti-human Fc antibody (REGN2567) to capture anti-ACVR1 monoclonal antibodies. Different concentrations of ACVR1 reagents, human ACVR1 extracellular domain expressed with a C-terminal myc-myc-hexahistidine tag (hACVR1-mmh; REGN3111, SEQ ID NO: 63), mouse ACVR1 extracellular domain expressed with a C-terminal myc-myc-hexahistidine tag (mACVR1-mmh; REGN3407, SEQ ID NO: 65), human ACVR1 extracellular domain expressed with a C-terminal mouse IgG2a Fc tag (hACVR1-mFc; REGN3112, SEQ ID NO: 64); and mouse ACVR1 extracellular domain expressed with a C-terminal mouse IgG2a Fc tag (mACVR1-mFc, R&D system), at concentrations ranging from 0.41 nM to 100 nM in a series of 3-fold dilutions prepared in HBS-EP running buffer were injected at a flow rate of 50 μL/min for 1.5 minutes. The dissociation of different ACVR1 reagents bound to anti-ACVR1 monoclonal antibodies was monitored for 20 minutes in HBS-EP running buffer. At the end of each cycle, the anti-ACVR1 monoclonal antibodies capture surface was regenerated using a 12 sec injection of 20 mM H3PO4. The association rate (ka) and dissociation rate (kd) were determined by fitting the real-time binding sensorgrams to a 1:1 binding model with mass transport limitation using Scrubber 2.0c curve-fitting software. Binding dissociation equilibrium constant (KD) and dissociative half-life (t½) were calculated from the kinetic rates as: […]
(§2) Binding kinetics parameters for different ACVR1 reagents to anti-ACVR1 monoclonal antibodies of the invention at 37° C. are shown in Table 5 through Table 8.

[2] = molecular target: T2, human ACVR1 extracellular domain expressed with a C-terminal mouse IgG2a Fc tag (human); assay: SPR Biacore T200, mAb captured by anti-human Fc, hACVR1-mFc injected, 37C
T2 construct: also called hACVR1-mFc; REGN3112
T2 chain: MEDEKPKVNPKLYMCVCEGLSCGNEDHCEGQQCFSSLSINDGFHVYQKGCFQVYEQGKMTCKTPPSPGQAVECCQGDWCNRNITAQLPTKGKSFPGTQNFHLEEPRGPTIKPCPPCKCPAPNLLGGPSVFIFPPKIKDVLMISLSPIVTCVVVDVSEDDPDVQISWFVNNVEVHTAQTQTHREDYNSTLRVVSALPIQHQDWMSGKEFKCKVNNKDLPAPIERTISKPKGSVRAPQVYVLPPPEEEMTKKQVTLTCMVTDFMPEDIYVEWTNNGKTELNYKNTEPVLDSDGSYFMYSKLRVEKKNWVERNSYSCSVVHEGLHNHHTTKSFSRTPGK
Description: as §1, §2

[3] = molecular target: T3, dimeric human BMPR1B (human, UniProt O00238 14-126, limits assumed); assay: SPR Biacore T200, mAb captured by anti-human Fab, 100 nM dimeric receptor injected, 25C
T3 construct: Construct and dimerising part not described; also called Human Receptor BMPR1B
T3 sequence (looked up): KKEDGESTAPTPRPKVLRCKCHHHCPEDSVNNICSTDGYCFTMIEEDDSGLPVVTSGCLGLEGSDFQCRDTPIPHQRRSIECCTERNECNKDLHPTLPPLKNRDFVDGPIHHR
Description: ACVR1 mAbs were tested for cross-reactivity to a panel of bone morphogenic protein type 1 receptors including human and mouse ACVR1, BMPR1A, and BMPR1B, as well as ACVRL1 on a Biacore T200 as follows. In order to measure the specificity of ACVR1 mAbs, ACVR1 mAbs were captured with anti-human Fab immobilized on a CM5 chip. 100 nM or 10 nM of dimeric human or mouse ACVR1, ACVRL1, BMPR1A or BMPR1B were injected at 30 μL/min for 2 min (duplicate injections) and the experiment was performed at 25° C. Binding of different receptors to the captured mAb was determined using Scrubber 2.0c software.

Binder | 100 nM Ag Bound (RU) [1] | Kd [1] | koff [1] | kon [1] | t½ [1] | 100 nM Ag Bound (RU) [2] | Kd [2] | koff [2] | kon [2] | t½ [2] | 100 nM Human Receptor Binding [3]
B1 | 43 RU | 0.26 nM | 0.000176 s⁻¹ | 677000 M⁻¹ s⁻¹ | 1.08 h | 142 RU | 0.0478 nM | 5.65e-05 s⁻¹ | 1.18e+06 M⁻¹ s⁻¹ | 3.4 h | 24 RU
B2 | 43 RU | 0.227 nM | 0.000163 s⁻¹ | 718000 M⁻¹ s⁻¹ | 1.18 h | 141 RU | 0.0481 nM | 5.36e-05 s⁻¹ | 1.11e+06 M⁻¹ s⁻¹ | 3.58 h | 10 RU
B3 | 42 RU | 1.21 nM | 0.00159 s⁻¹ | 1.31e+06 M⁻¹ s⁻¹ | 0.117 h | 145 RU | 0.191 nM | 0.000357 s⁻¹ | 1.87e+06 M⁻¹ s⁻¹ | 0.533 h | 20 RU
